According to patent publication US20110111406A1 (published 2011):
Read-outs that look alike come from different tables or passages of the source.

T1: recombinant soluble human IL-6 receptor (SR344) (human, UniProt P08887 20-344)
T1 construct: In the 'membrane-type IL-6 receptor' Biacore assays the same SR344 was biotinylated and immobilized via streptavidin; also called soluble IL-6 receptor; membrane-type IL-6 receptor (as biotinylated SR344 immobilized on the sensor chip)
T1 sequence (looked up): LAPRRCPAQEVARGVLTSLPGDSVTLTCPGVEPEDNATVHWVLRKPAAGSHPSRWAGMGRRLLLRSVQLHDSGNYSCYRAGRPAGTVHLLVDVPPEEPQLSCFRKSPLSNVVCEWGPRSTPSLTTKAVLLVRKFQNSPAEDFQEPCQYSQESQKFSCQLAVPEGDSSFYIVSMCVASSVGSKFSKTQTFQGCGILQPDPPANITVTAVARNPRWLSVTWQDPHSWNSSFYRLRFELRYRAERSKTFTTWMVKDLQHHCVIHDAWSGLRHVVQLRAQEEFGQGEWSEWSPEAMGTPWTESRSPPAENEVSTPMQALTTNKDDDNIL


Key:
[1] = target: T1, recombinant soluble human IL-6 receptor …; assay: Biacore T100, biotinylated SR344 immobilized via streptavidin (membrane-type IL-6 receptor model), antibody as analyte; ratio of kd at pH 5.8 to pH 7.4
Protocol: (§1) Binding to the membrane-type IL-6 receptor was evaluated by evaluating binding to the IL-6 receptor immobilized on a sensor chip. SR344 was biotinylated in accordance with a method known among persons with ordinary skill in the art, and the biotinylated SR344 was immobilized on the sensor chip via streptavidin using the affinity between streptavidin and biotin. All the measurements were carried out at 37° C. The mobile phase buffer was 10 mM MES (pH 5.8), 150 mM NaCl and 0.05% Tween 20.
(§2) The pH-dependently-binding clones were injected under the condition of pH 7.4 to allow them to bind to SR344, and then, the pH-dependent dissociation of each clone at the pH of the mobile phase, pH 5.8, was observed. The results are shown in FIG. 21 (results for Fv1-M71, Fv1-M73, Fv3-M71, and Fv3-M73 are shown in FIG. 21, while results for other clones are shown in FIGS. 17 and 19). Analyses were carried out in the same manner as in Example 10 and the pH dependencies of the dissociation rate constants of all of the eleven types of clones are shown in Table 12.

[2] = target: T1, recombinant soluble human IL-6 receptor …; assay: as above; remark: listed apart in the source
Protocol: as §1, §2

Binder | kd(pH 5.8)/kd(pH 7.4) [1] | kd(pH 5.8)/kd(pH 7.4) [2]
Fv4-M58 (antibody, also called VH3-M58/VL3-CK) heavy: QVQLQESGPGLVKPSETLSLTCAVSGHSISHDHAWSWVRQPPGEGLEWIGFISYSGITNYNPSLQGRVTISRDNSKNTLYLQMNSLRAEDTAVYYCARSLARTTAMDYWGEGTLVTVSSASTKGPSVFPLAPSSKSTSGGTAALGCLVKDYFPEPVTVSWNSGALTSGVHTFPAVLQSSGLYSLSSVVTVPSSNFGTQTYTCNVDHKPSNTKVDKTVERKSCVECPPCPAPPVAGPSVFLFPPKPKDTLMISRTPEVTCVVVDVSQEDPEVQFNWYVDGVEVHNAKTKPREEQFNSTFRVVSVLTVVHQDWLNGKEYKCKVSNKGLPAPIEKTISKTKGQPREPQVYTLPPSQEEMTKNQVSLTCLVKGFYPSDIAVEWESNGQPENNYKTTPPMLDSDGSFFLYSKLTVDKSRWQEGNVFSCSVMHEALHNHYTQKSLSLSP light: DIQMTQSPSSLSASVGDSVTITCQASTDISSHLNWYQQKPGKAPELLIYYGSHLLSGVPSRFSGSGSGTDFTFTISSLEAEDAATYYCGQGNRLPYTFGQGTKVEIERTVAAPSVFIFPPSDEQLKSGTASVVCLLNNFYPREAKVQWKVDNALQSGNSQESVTEQDSKDSTYSLSSTLTLSKADYEKHKVYACEVTHQGLSSPVTKSFNRGEC | 17.6 | 17.6
Fv1-M71 (antibody, human IgG2, kappa, also called VH2-M71/VL2-CK) heavy: QVQLQESGPGLVKPSETLSLTCAVSGYSISHDHAWSWVRQPPGEGLEWIGHISYSGITNYNPHLQDRVTISRDTSKNQFSLKLSSVTAADTAVYYCARFLARITAHDHWGEGTLVTVSSASTKGPSVFPLAPCSRSTSESTAALGCLVKDYFPEPVTVSWNSGALTSGVHTFPAVLQSSGLYSLSSVVTVPSSNFGTQTYTCNVDHKPSNTKVDKTVERKCCVECPPCPAPPVAGPSVFLFPPKPKDTLMISRTPEVTCVVVDVSHEDPEVQFNWYVDGVEVHNAKTKPREEQFNSTFRVVSVLTVVHQDWLNGKEYKCKVSNKGLPAPIEKTISKTKGQPREPQVYTLPPSREEMTKNQVSLTCLVKGFYPSDIAVEWESNGQPENNYKTTPPMLDSDGSFFLYSKLTVDKSRWQQGNVFSCSVMHEALHAHYTQKSLSLSPGK light: DIQMTQSPSSLSASVGDSVTITCQASRDISSHLNWYQQKPGKAPELLIYYGSHLESGVPSRFSGSGSGTDFTFTISSLEAEDAATYYCGQGNRLPYTFGQGTKVEIERTVAAPSVFIFPPSDEQLKSGTASVVCLLNNFYPREAKVQWKVDNALQSGNSQESVTEQDSKDSTYSLSSTLTLSKADYEKHKVYACEVTHQGLSSPVTKSFNRGEC | – | 11.3
Fv1-M73 (antibody, also called VH2-M73/VL2-CK) heavy: QVQLQESGPGLVKPSETLSLTCAVSGYSISHDHAWSWVRQPPGEGLEWIGHISYSGITNYNPHLQDRVTISRDTSKNQFSLKLSSVTAADTAVYYCARFLARITAHDHWGEGTLVTVSSASTKGPSVFPLAPSSKSTSGGTAALGCLVKDYFPEPVTVSWNSGALTSGVHTFPAVLQSSGLYSLSSVVTVPSSNFGTQTYTCNVDHKPSNTKVDKTVERKSCVECPPCPAPPVAGPSVFLFPPKPKDTLMISRTPEVTCVVVDVSQEDPEVQFNWYVDGVEVHNAKTKPREEQFNSTFRVVSVLTVVHQDWLNGKEYKCKVSNKGLPAPIEKTISKTKGQPREPQVYTLPPSQEEMTKNQVSLTCLVKGFYPSDIAVEWESNGQPENNYKTTPPMLDSDGSFFLYSKLTVDKSRWQEGNVFSCSVMHEALHAHYTQKSLSLSP light: DIQMTQSPSSLSASVGDSVTITCQASRDISSHLNWYQQKPGKAPELLIYYGSHLESGVPSRFSGSGSGTDFTFTISSLEAEDAATYYCGQGNRLPYTFGQGTKVEIERTVAAPSVFIFPPSDEQLKSGTASVVCLLNNFYPREAKVQWKVDNALQSGNSQESVTEQDSKDSTYSLSSTLTLSKADYEKHKVYACEVTHQGLSSPVTKSFNRGEC | – | 8.8
Fv3-M71 (antibody, human IgG2, kappa, also called VH4-M71/VL1-CK) heavy: QVQLQESGPGLVKPSETLSLTCAVSGHSISHDHAWSWVRQPPGEGLEWIGFISYSGITNYNPTLQGRVTISRDNSKNTLYLQMNSLRAEDTAVYYCARSLARTTAMDYWGEGTLVTVSSASTKGPSVFPLAPCSRSTSESTAALGCLVKDYFPEPVTVSWNSGALTSGVHTFPAVLQSSGLYSLSSVVTVPSSNFGTQTYTCNVDHKPSNTKVDKTVERKCCVECPPCPAPPVAGPSVFLFPPKPKDTLMISRTPEVTCVVVDVSHEDPEVQFNWYVDGVEVHNAKTKPREEQFNSTFRVVSVLTVVHQDWLNGKEYKCKVSNKGLPAPIEKTISKTKGQPREPQVYTLPPSREEMTKNQVSLTCLVKGFYPSDIAVEWESNGQPENNYKTTPPMLDSDGSFFLYSKLTVDKSRWQQGNVFSCSVMHEALHAHYTQKSLSLSPGK light: DIQMTQSPSSLSASVGDSVTITCQASRDISSHLNWYQQKPGKAPELLIYYGSHLLSGVPSRFSGSGSGTDFTFTISSLEAEDAATYYCGQGNRLPYTFGQGTKVEIERTVAAPSVFIFPPSDEQLKSGTASVVCLLNNFYPREAKVQWKVDNALQSGNSQESVTEQDSKDSTYSLSSTLTLSKADYEKHKVYACEVTHQGLSSPVTKSFNRGEC | – | 10.7

The next lines start with the values.

kd(pH 5.8)/kd(pH 7.4) [1] | kd(pH 5.8)/kd(pH 7.4) [2] | Binder
– | 10.9 | Fv3-M73 (antibody, also called VH4-M73/VL1-CK) heavy: QVQLQESGPGLVKPSETLSLTCAVSGHSISHDHAWSWVRQPPGEGLEWIGFISYSGITNYNPTLQGRVTISRDNSKNTLYLQMNSLRAEDTAVYYCARSLARTTAMDYWGEGTLVTVSSASTKGPSVFPLAPSSKSTSGGTAALGCLVKDYFPEPVTVSWNSGALTSGVHTFPAVLQSSGLYSLSSVVTVPSSNFGTQTYTCNVDHKPSNTKVDKTVERKSCVECPPCPAPPVAGPSVFLFPPKPKDTLMISRTPEVTCVVVDVSQEDPEVQFNWYVDGVEVHNAKTKPREEQFNSTFRVVSVLTVVHQDWLNGKEYKCKVSNKGLPAPIEKTISKTKGQPREPQVYTLPPSQEEMTKNQVSLTCLVKGFYPSDIAVEWESNGQPENNYKTTPPMLDSDGSFFLYSKLTVDKSRWQEGNVFSCSVMHEALHAHYTQKSLSLSP light: DIQMTQSPSSLSASVGDSVTITCQASRDISSHLNWYQQKPGKAPELLIYYGSHLLSGVPSRFSGSGSGTDFTFTISSLEAEDAATYYCGQGNRLPYTFGQGTKVEIERTVAAPSVFIFPPSDEQLKSGTASVVCLLNNFYPREAKVQWKVDNALQSGNSQESVTEQDSKDSTYSLSSTLTLSKADYEKHKVYACEVTHQGLSSPVTKSFNRGEC
10.1 | 10.1 | Fv4-M73 (antibody, also called VH3-M73/VL3-CK) heavy: QVQLQESGPGLVKPSETLSLTCAVSGHSISHDHAWSWVRQPPGEGLEWIGFISYSGITNYNPSLQGRVTISRDNSKNTLYLQMNSLRAEDTAVYYCARSLARTTAMDYWGEGTLVTVSSASTKGPSVFPLAPSSKSTSGGTAALGCLVKDYFPEPVTVSWNSGALTSGVHTFPAVLQSSGLYSLSSVVTVPSSNFGTQTYTCNVDHKPSNTKVDKTVERKSCVECPPCPAPPVAGPSVFLFPPKPKDTLMISRTPEVTCVVVDVSQEDPEVQFNWYVDGVEVHNAKTKPREEQFNSTFRVVSVLTVVHQDWLNGKEYKCKVSNKGLPAPIEKTISKTKGQPREPQVYTLPPSQEEMTKNQVSLTCLVKGFYPSDIAVEWESNGQPENNYKTTPPMLDSDGSFFLYSKLTVDKSRWQEGNVFSCSVMHEALHAHYTQKSLSLSP light: DIQMTQSPSSLSASVGDSVTITCQASTDISSHLNWYQQKPGKAPELLIYYGSHLLSGVPSRFSGSGSGTDFTFTISSLEAEDAATYYCGQGNRLPYTFGQGTKVEIERTVAAPSVFIFPPSDEQLKSGTASVVCLLNNFYPREAKVQWKVDNALQSGNSQESVTEQDSKDSTYSLSSTLTLSKADYEKHKVYACEVTHQGLSSPVTKSFNRGEC
17 | 17 | Fv4-IgG2 (antibody, also called Fv4-IgG2ΔGK; VH3-IgG2ΔGK/VL3-CK) heavy: QVQLQESGPGLVKPSETLSLTCAVSGHSISHDHAWSWVRQPPGEGLEWIGFISYSGITNYNPSLQGRVTISRDNSKNTLYLQMNSLRAEDTAVYYCARSLARTTAMDYWGEGTLVTVSSASTKGPSVFPLAPCSRSTSESTAALGCLVKDYFPEPVTVSWNSGALTSGVHTFPAVLQSSGLYSLSSVVTVPSSNFGTQTYTCNVDHKPSNTKVDKTVERKCCVECPPCPAPPVAGPSVFLFPPKPKDTLMISRTPEVTCVVVDVSHEDPEVQFNWYVDGVEVHNAKTKPREEQFNSTFRVVSVLTVVHQDWLNGKEYKCKVSNKGLPAPIEKTISKTKGQPREPQVYTLPPSREEMTKNQVSLTCLVKGFYPSDIAVEWESNGQPENNYKTTPPMLDSDGSFFLYSKLTVDKSRWQQGNVFSCSVMHEALHNHYTQKSLSLSP light: DIQMTQSPSSLSASVGDSVTITCQASTDISSHLNWYQQKPGKAPELLIYYGSHLLSGVPSRFSGSGSGTDFTFTISSLEAEDAATYYCGQGNRLPYTFGQGTKVEIERTVAAPSVFIFPPSDEQLKSGTASVVCLLNNFYPREAKVQWKVDNALQSGNSQESVTEQDSKDSTYSLSSTLTLSKADYEKHKVYACEVTHQGLSSPVTKSFNRGEC
